Source: PMC12207370, “Macrocyclic Peptide Probes for Immunomodulatory Protein CD59: Potent Modulators of Bacterial Toxin Activity and Antibody‐Dependent Cytotoxicity” (Angewandte Chemie (International Ed. in English), 2025)

Target: T1, biotinylated CD59 (Homo sapiens, UniProt P13987)
T1 construct: Recombinant soluble human CD59 with an additional C-terminal cysteine residue
T1 sequence (P13987 26-102 limits assumed): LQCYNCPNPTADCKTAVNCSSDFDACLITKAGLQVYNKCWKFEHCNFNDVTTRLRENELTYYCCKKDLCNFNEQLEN
Assay: mRNA-display cyclic peptide screen against CD59-biotin, NGS abundance after 6th selection round
Details: for Percentage Seq I: counts normalised by total counts of sample Seq I; for Percentage Seq I / Percentage Seq II: percentage of the pool; for Percentage Seq I / Percentage Seq II / Percentage Average / Percentage of the pool, averaged across the two sequencing samples / Percentage of the pool, Seq I / Percentage of the pool, Seq II: sheet R6; for Percentage Seq II: counts normalised by total counts of sample Seq II; for Percentage Average: percentage of the pool averaged across the two sequencing samples; for Counts Seq I / Counts Seq II: raw NGS counts of peptide sequence; for Counts Seq I: sequencing sample Seq I; for Counts Seq I / Counts Seq II / Counts (raw counts for peptide sequence), Seq I / Counts (raw counts for peptide sequence), Seq II: sheet R6 (6th selection round); for Counts Seq II: sequencing sample Seq II; for Counts (raw counts for peptide sequence), Seq I: NGS sample Seq I; for Counts (raw counts for peptide sequence), Seq II: NGS sample Seq II; for Percentage of the pool, averaged across the two sequencing samples: average of Seq I and Seq II; for Percentage of the pool, Seq I: counts normalised by total counts of NGS sample Seq I; for Percentage of the pool, Seq II: counts normalised by total counts of NGS sample Seq II
Outline: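 Peptide–mRNA fusions were made by in vitro translation with a customised PURE express kit. The kit lacked release factor 1 and methionine and was supplemented with […] initiator tRNA carrying N-chloroacetyl-d-tyrosine. Thioether macrocycles were formed, then enriched and amplified over iterative rounds on CD59-biotin immobilised on streptavidin beads. NGS read counts per sequence were recorded after the 6th selection round.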

Sequence	Percentage Seq I [%]	Percentage Seq II [%]	Percentage Average [%]	Counts Seq I	Counts Seq II	Counts (raw counts for peptide sequence), Seq I	Counts (raw counts for peptide sequence), Seq II	Percentage of the pool, averaged across the two sequencing samples [%]	Percentage of the pool, Seq I [%]	Percentage of the pool, Seq II [%]
ILGSRDTIKYW	0.118	0.167	0.142	515	72					
WRDRFDQCVR	0.039	0.053	0.046	169	23					
LKPNGRCLPKV	0.272	0.283	0.277	1189	122					
FVTGNRDHTRV						35	5	0.010	0.008	0.012
CFAGRLTVDAV	0.037	0.030	0.034	163	13					
CFSWRLGPAEK	0.020	0.028	0.024	87	12					
CFVRRLNDLTTT	0.121	0.137	0.129	528	59					
CFARRLSASLGT	0.033	0.021	0.027	145	9					
EIRGALNWVRG	0.125	0.146	0.136	549	63					
TLSTNRDLIRLPAAAAAAARTGGG						63	7	0.015	0.014	0.016
WILGSRWWTRS	0.097	0.111	0.104	424	48					
STRRDRLGLTC						57	9	0.017	0.013	0.021
SAWGNQQIQYY	0.028	0.026	0.027	124	11					
CYTAGSASWSRG	0.726	0.680	0.703	3176	293					
GRVRTCPVIV						65	5	0.013	0.015	0.012
CFSRRLTAGAS	0.024	0.028	0.026	106	12					
GYKNECHSFNW						40	6	0.012	0.009	0.014
SWTWGNRTSVRG						36	7	0.012	0.008	0.016
FVTGNRDHTRE						33	7	0.012	0.00754	0.016
YIVGSSDYTRG	0.417	0.388	0.402	1825	167					
VKYGNSNFVRE	0.047	0.060	0.054	207	26					
HVFGNRSFTSG	0.017	0.021	0.019	73	9					
FVTGNRGHTRG	0.024	0.016	0.020	105	7					

Sequence	Percentage Seq I [%]	Percentage Seq II [%]	Percentage Average [%]	Counts Seq I	Counts Seq II	Counts (raw counts for peptide sequence), Seq I	Counts (raw counts for peptide sequence), Seq II	Percentage of the pool, averaged across the two sequencing samples [%]	Percentage of the pool, Seq I [%]	Percentage of the pool, Seq II [%]
VYGSRYASIPFC						45	9	0.016	0.010	0.021
FVRGDLYPVLG						65	5	0.013	0.015	0.012
CFSHRRLEYGV	0.045	0.046	0.046	197	20					
CYGGRAFIYAWS	0.042	0.044	0.043	185	19					
CFQNRVSGSGAL	0.119	0.116	0.118	522	50					
CFQNRMAYGDI						34	7	0.012	0.008	0.016
VVHGGKDYQWS						64	5	0.013	0.015	0.012
WIYGGRHFRLS						82	2	0.012	0.019	0.00464
CFAFRLSQTSV	0.179	0.146	0.162	782	63					
CFSHRPGPSI	0.147	0.132	0.140	642	57					
CKIDVYGRTWS						81	5	0.015	0.019	0.012
FVTSNRDHTRG						23	6	0.010	0.005	0.014
AISGGRDYTRG						43	6	0.012	0.010	0.014
LVRGDLYSVLG						85	7	0.018	0.019	0.016
ISRGDARYTWG	0.019	0.023	0.021	83	10					
ASWLPSPCKFN	0.029	0.037	0.033	128	16					
SAWGNRQVQYY	0.110	0.116	0.113	483	50					
VSRGDSTYTLF	0.031	0.028	0.030	137	12					
CFSARTDSSGT	0.053	0.039	0.046	231	17					
CAWGNRYTAYY						68	5	0.014	0.016	0.012
HVFGNRSFTRG	5.324	5.834	5.579	23292	2514					
SAYGSRDFAWA	0.024	0.023	0.024	106	10					
LCSVRGSNDWI	0.073	0.074	0.074	320	32					
